Results on eleven molecules are retold here after patent US9096650B2, “Cyclic oligopeptides for binding to a target ligand” (LEXCICON LIMITED, priority 2006, dated 2015).

Bridges are numbered along the chain shown (N, C = ends). [ ]: non-standard residue; d: D form. Gly(decyl) = CCCCCCCCCC[C@H](N)C(=O)O

Test [1] has as its system J774-1 cells (a macrophage cell line). The test is described as follows: Suppression of TNF secretion stimulated by LPS in a macrophage cell line, varying epitope order and stereochemistry of associating amino acids (Example 3). The class given is cell-based. The conditions noted are these: peptide 50 ug/ml; LPS 1.25 ug/ml; LPS alone 1861.9. As to the method: • 1. Cyclic octapeptides were prepared with the following structures: cyclo(-DF-S-ΣL-R-DF-S-ΣL-R-) cyclo(-DF-S-ΣL-R-DF-S-ΣD-R-) cyclo(-DF-S-ΣD-R-DF-S-ΣD-R-) cyclo(-DF-R-ΣL-S-DF-R-ΣL-S-) cyclo(-DF-R-ΣL-S-DF-R-ΣD-S-) cyclo(-DF-R-ΣD-S-DF-R-ΣD-S-) wherein F, S and R are the epitope-forming amino acids, ΣL represents an associating amino acid which is an L-alpha aminocarboxylic acid in which the associating functional group is a side-chain residue consisting of an unbranched —C10H21; ΣD represents an associating amino acid which is a D-alpha aminocarboxylic acid in which the associating functional group is a side-chain residue consisting an unbranched —C10H21. These cyclic oligopeptides were prepared as solutions in distilled water at a concentration of 1 mg/ml. • 2. J774-1 cells (a macrophage cell line) were plated out in all the wells of a 24-well cluster plates at a seeding density of 3×10^5 cells/ml/well (1 ml RPMI 1640 culture medium per well), and incubated overnight at 37° C. in 5% CO2/air. • 3. The following day, the solutions from step 1 were administered to eighteen wells containing cells in step 2, to give three wells each with a final concentration of 50 ug/ml. The remaining wells were left untreated. The plate was incubated for a further four hours at 37 degC. • 4. Lipopolysaccharide (from E. coli strain 0111 B4) was added to the wells receiving the octapeptide solutions, as well as three of the wells receiving no peptide. The concentration of lipopolysaccharide was 1.25 ug/ml. • 5. The plate was incubated overnight, and the following day the supernatants were assayed for TNF using a commercial ELISA kit.

Test [2] concerns the target thrombin (Homo sapiens, UniProt P00734). The test is described as follows: Inhibition of enzyme activity of thrombin, fluorogenic substrate (Example 7). The class given is biochemical. As to the method:
1. Cyclic oligopeptides of the following structures were synthesised as previously described, and prepared in complexed form with cyclodextrin at concentration of 1 mg/ml on Hanks Balanced Salts Solution using the procedure outlined in example 6. (i) cyclo(-R-E-Σ-S-R-E-R-Σ-S-E-) (ii) cyclo(-A-K-ΣE-Y-K-A-ΣY-E-) (iii) cyclo(-dF-R-C-S-dF-R-C-S-) (iv) cyclo(-dF-S-C-R-dF-S-C-R-)
2. In wells of a […] microplate, 20 ul of thrombin solution (0.01 mg/ml) were dispensed, and mixed with 60 ul of cyclic oligopeptide solution
3. 20 ul of the substrate boc-beta-benzyl-Asp-Pro-Arg-7-amido-4-methylcoumarin hydrochloride (0.01 mg/ml) was added to each well, and the time course of generation of […] was measured.

Test [3] concerns the target thrombin. Kind of test: cell-based or functional assay.
Where [4] appears, read: time 2.0 minutes, enzyme alone 770.9, lower = more inhibition.
The mark [5] stands for this setting: time 5.0 minutes, enzyme alone 1821.1.
Setting [6] is: time 10.0 minutes, enzyme alone 2163.5.
Where [7] appears, read: time 15.0 minutes, enzyme alone 2253.2.
Where [8] appears, read: time 20.0 minutes, enzyme alone 2345.8.
Setting [9] is: time 25.0 minutes, enzyme alone 2359.0.

As to cyclo(-DF-S-ΣD-R-DF-S-ΣD-R-), the “Concentration of TNF” value in test [1] came to 1438.0 pg/mL.

Consider cyclo(-DF-R-ΣL-S-DF-R-ΣD-S-), for which the “Concentration of TNF” value in test [1] came out at 1625.2 pg/mL.

As to “cyclo(-dF-R-C-S-dF-R-C-S-) (cyclo([dF]RCS[dF]RCS); disulfide 3-7; SMILES N=C(N)NCCC[C@@H]1NC(=O)[C@@H](Cc2ccccc2)NC(=O)[C@H](CO)NC(=O)[C@@H]2CSSC[C@H](NC1=O)C(=O)N[C@@H](CO)C(=O)N[C@H](Cc1ccccc1)C(=O)N[C@@H](CCCNC(=N)N)C(=O)N2) [Example 7 (iii), cysteines in the ring are oxidised to form an internal bridge]”, the “Thrombin proteolytic activity (Fluorescence Units - Arbitrary Units)” value in test [2] (setting [4]) is 634.5 Arbitrary Units; in test [2] (setting [5]), 1368.8 Arbitrary Units; in test [2] (setting [6]), 1786.9 Arbitrary Units; in test [2] (setting [7]), 1980.7 Arbitrary Units; in test [2] (setting [8]) it was 2107.4 Arbitrary Units; in test [2] (setting [9]), 2159.7 Arbitrary Units.

As for cyclo(-DF-S-ΣL-R-DF-S-ΣD-R-), the “Concentration of TNF” value in test [1] was 987.1 pg/mL.

For cyclo(-DF-R-ΣL-S-DF-R-ΣL-S-), in test [1], the “Concentration of TNF” value was found to be 1990.4 pg/mL.

Regarding cyclo(-DF-R-ΣD-S-DF-R-ΣD-S-), the “Concentration of TNF” value in test [1] is 1573.3 pg/mL.

On to “cyclo(-dF-S-C-R-dF-S-C-R-) (cyclo([dF]SCR[dF]SCR); disulfide 3-7; SMILES N=C(N)NCCC[C@@H]1NC(=O)[C@@H]2CSSC[C@H](NC(=O)[C@H](CO)NC(=O)[C@@H](Cc3ccccc3)NC1=O)C(=O)N[C@@H](CCCNC(=N)N)C(=O)N[C@H](Cc1ccccc1)C(=O)N[C@@H](CO)C(=O)N2) [Example 7 (iv), cysteines in the ring are oxidised to form an internal bridge]”, for which the “Thrombin proteolytic activity (Fluorescence Units - Arbitrary Units)” value in test [2] (setting [4]) worked out at 523.2 Arbitrary Units; in test [2] (setting [5]), 1205.3 Arbitrary Units; in test [2] (setting [6]) it was 1586.9 Arbitrary Units; in test [2] (setting [7]) it was 1751.7 Arbitrary Units; in test [2] (setting [8]), 1843.1 Arbitrary Units; in test [2] (setting [9]), 1864.8 Arbitrary Units.

B1: cyclo(-R-E-Σ-S-R-E-R-Σ-S-E-) (peptide)
peptide: cyclo(RE[Gly(decyl)]SRER[Gly(decyl)]SE)
SMILES: CCCCCCCCCC[C@@H]1NC(=O)[C@H](CCCNC(=N)N)NC(=O)[C@H](CCC(=O)O)NC(=O)[C@H](CCCNC(=N)N)NC(=O)[C@H](CO)NC(=O)[C@H](CCCCCCCCCC)NC(=O)[C@H](CCC(=O)O)NC(=O)[C@H](CCCNC(=N)N)NC(=O)[C@H](CCC(=O)O)NC(=O)[C@H](CO)NC1=O
In test [3], B1 gave an Inhibition of Thrombin proteolytic activity (Fluorescence Units - Arbitrary Units) at 2.0 minutes; control (enzyme alone) 770.9 (Fluorescence Units - Arbitrary Units) of 411, an Inhibition of Thrombin proteolytic activity (Fluorescence Units - Arbitrary Units) at 5.0 minutes; control (enzyme alone) 1821.1 (Fluorescence Units - Arbitrary Units) of 816, an Inhibition of Thrombin proteolytic activity (Fluorescence Units - Arbitrary Units) at 10.0 minutes; control (enzyme alone) 2163.5 (Fluorescence Units - Arbitrary Units) of 1190 and an Inhibition of Thrombin proteolytic activity (Fluorescence Units - Arbitrary Units) at 15.0 minutes; control (enzyme alone) 2253.2 (Fluorescence Units - Arbitrary Units) of 1400. Also, in test [3], the Inhibition of Thrombin proteolytic activity (Fluorescence Units - Arbitrary Units) at 20.0 minutes; control (enzyme alone) 2345.8 (Fluorescence Units - Arbitrary Units) stood at 1590 and the Inhibition of Thrombin proteolytic activity (Fluorescence Units - Arbitrary Units) at 25.0 minutes; control (enzyme alone) 2359.0 (Fluorescence Units - Arbitrary Units) was found to be 1670.

B2: cyclo(-A-K-ΣE-Y-K-A-ΣY-E-) (peptide)
peptide: cyclo(AK[Gly(decyl)]EYKA[Gly(decyl)]YE)
SMILES: CCCCCCCCCC[C@@H]1NC(=O)[C@H](C)NC(=O)[C@H](CCCCN)NC(=O)[C@H](Cc2ccc(O)cc2)NC(=O)[C@H](CCC(=O)O)NC(=O)[C@H](CCCCCCCCCC)NC(=O)[C@H](CCCCN)NC(=O)[C@H](C)NC(=O)[C@H](CCC(=O)O)NC(=O)[C@H](Cc2ccc(O)cc2)NC1=O
In test [3], B2 had an Inhibition of Thrombin proteolytic activity (Fluorescence Units - Arbitrary Units) at 2.0 minutes; control (enzyme alone) 770.9 (Fluorescence Units - Arbitrary Units) of 411, an Inhibition of Thrombin proteolytic activity (Fluorescence Units - Arbitrary Units) at 5.0 minutes; control (enzyme alone) 1821.1 (Fluorescence Units - Arbitrary Units) of 816, an Inhibition of Thrombin proteolytic activity (Fluorescence Units - Arbitrary Units) at 10.0 minutes; control (enzyme alone) 2163.5 (Fluorescence Units - Arbitrary Units) of 1190 and an Inhibition of Thrombin proteolytic activity (Fluorescence Units - Arbitrary Units) at 15.0 minutes; control (enzyme alone) 2253.2 (Fluorescence Units - Arbitrary Units) of 1400. In test [3], the Inhibition of Thrombin proteolytic activity (Fluorescence Units - Arbitrary Units) at 20.0 minutes; control (enzyme alone) 2345.8 (Fluorescence Units - Arbitrary Units) was 1590 and the Inhibition of Thrombin proteolytic activity (Fluorescence Units - Arbitrary Units) at 25.0 minutes; control (enzyme alone) 2359.0 (Fluorescence Units - Arbitrary Units) was 1670.

B3: cyclo(-dF-R-C-S-dF-R-C-S-) (peptide)
peptide: cyclo([dF]RCS[dF]RCS)
modifications: disulfide 3-7
SMILES: N=C(N)NCCC[C@@H]1NC(=O)[C@@H](Cc2ccccc2)NC(=O)[C@H](CO)NC(=O)[C@@H]2CSSC[C@H](NC1=O)C(=O)N[C@@H](CO)C(=O)N[C@H](Cc1ccccc1)C(=O)N[C@@H](CCCNC(=N)N)C(=O)N2
As to B3, in test [3], the Inhibition of Thrombin proteolytic activity (Fluorescence Units - Arbitrary Units) at 2.0 minutes; control (enzyme alone) 770.9 (Fluorescence Units - Arbitrary Units) was found to be 634, the Inhibition of Thrombin proteolytic activity (Fluorescence Units - Arbitrary Units) at 5.0 minutes; control (enzyme alone) 1821.1 (Fluorescence Units - Arbitrary Units) is 1370, the Inhibition of Thrombin proteolytic activity (Fluorescence Units - Arbitrary Units) at 10.0 minutes; control (enzyme alone) 2163.5 (Fluorescence Units - Arbitrary Units) was 1790 and the Inhibition of Thrombin proteolytic activity (Fluorescence Units - Arbitrary Units) at 15.0 minutes; control (enzyme alone) 2253.2 (Fluorescence Units - Arbitrary Units) worked out at 1980. Further, in test [3], the Inhibition of Thrombin proteolytic activity (Fluorescence Units - Arbitrary Units) at 20.0 minutes; control (enzyme alone) 2345.8 (Fluorescence Units - Arbitrary Units) stood at 2110 and the Inhibition of Thrombin proteolytic activity (Fluorescence Units - Arbitrary Units) at 25.0 minutes; control (enzyme alone) 2359.0 (Fluorescence Units - Arbitrary Units) was 2160.

B4: cyclo(-dF-S-C-R-dF-S-C-R-) (peptide)
peptide: cyclo([dF]SCR[dF]SCR)
modifications: disulfide 3-7
SMILES: N=C(N)NCCC[C@@H]1NC(=O)[C@@H]2CSSC[C@H](NC(=O)[C@H](CO)NC(=O)[C@@H](Cc3ccccc3)NC1=O)C(=O)N[C@@H](CCCNC(=N)N)C(=O)N[C@H](Cc1ccccc1)C(=O)N[C@@H](CO)C(=O)N2
On to B4, for which, in test [3], the Inhibition of Thrombin proteolytic activity (Fluorescence Units - Arbitrary Units) at 2.0 minutes; control (enzyme alone) 770.9 (Fluorescence Units - Arbitrary Units) was 523, the Inhibition of Thrombin proteolytic activity (Fluorescence Units - Arbitrary Units) at 5.0 minutes; control (enzyme alone) 1821.1 (Fluorescence Units - Arbitrary Units) turned out to be 1210, the Inhibition of Thrombin proteolytic activity (Fluorescence Units - Arbitrary Units) at 10.0 minutes; control (enzyme alone) 2163.5 (Fluorescence Units - Arbitrary Units) turned out to be 1590 and the Inhibition of Thrombin proteolytic activity (Fluorescence Units - Arbitrary Units) at 15.0 minutes; control (enzyme alone) 2253.2 (Fluorescence Units - Arbitrary Units) turned out to be 1750. Besides, in test [3], the Inhibition of Thrombin proteolytic activity (Fluorescence Units - Arbitrary Units) at 20.0 minutes; control (enzyme alone) 2345.8 (Fluorescence Units - Arbitrary Units) stood at 1840 and the Inhibition of Thrombin proteolytic activity (Fluorescence Units - Arbitrary Units) at 25.0 minutes; control (enzyme alone) 2359.0 (Fluorescence Units - Arbitrary Units) is 1860.
